Source: US20140302033A1 (UCB, published 2014)

Tests used:
[1] = biological target: T1, Mouse Serum albumin (mouse, UniProt P07724 25-608); experiment: SPR BIAcore T200; Fab-Fv captured by anti-human F(ab')2, albumin as analyte; average of 3
T1 construct: also called MSA
Experimental: (§1) BIA (Biamolecular Interaction Analysis) was performed using a BIAcore T200 (GE Healthcare). Affinipure F(ab′)₂ Fragment goat anti-human IgG, F(ab′)₂ fragment specific (Jackson ImmunoResearch) was immobilised on a CM5 Sensor Chip via amine coupling chemistry to a capture level of ≈5000 response units (RUs). HBS-EP buffer (10 mM HEPES pH 7.4, 0.15 M NaCl, 3 mM EDTA, 0.05% Surfactant P20, GE Healthcare) was used as the running buffer with a flow rate of 10 μl/min. A 10 μL injection of Fab-Fv at 0.75 μg/mL was used for capture by the immobilised anti-human IgG-F(ab′)₂. Human Serum Albumin (HSA), Mouse Serum albumin (MSA) and Cynomolgus Serum Albumin (CSA) was titrated over the captured Fab-Fv at various concentrations (50 nM to 6.25 nM) at a flow rate of 30 μL/min. The surface was regenerated by 2×10 μL injection of 50 mM HCl, followed by a 5 μL injection of 5 mM NaOH at a flowrate of 10 μL/min. Background subtraction binding curves were analysed using the T200evaluation software (version 1.0) following standard procedures. Kinetic parameters were determined from the fitting algorithm.

[2] = biological target: T2, Human Serum Albumin (human, UniProt P02768 25-609); experiment: as above
T2 construct: also called HSA; HAS
Experimental: as §1

[3] = biological target: T3, Cynomolgus Serum Albumin (cynomolgus, UniProt A2V9Z4 25-608); experiment: as above
T3 construct: also called CSA
Experimental: as §1

[4] = biological target: T2, Human Serum Albumin; experiment: kinetics table, analyte HSA, single concentration 50nM; HEK293 material; method not named in Example 4
[5] = biological target: T2, Human Serum Albumin; experiment: kinetics table, analyte HSA, titration 50nM, 25nM, 12.5nM, 6.25nM; HEK293 material; method not named in Example 4

| Kd [1] [nM] | koff [1] [s⁻¹] | kon [1] [M⁻¹ s⁻¹] | Kd [2] [nM] | koff [2] [s⁻¹] | kon [2] [M⁻¹ s⁻¹] | Kd [3] [nM] | koff [3] [s⁻¹] | kon [3] [M⁻¹ s⁻¹] | Kd [4] [nM] | koff [4] [s⁻¹] | kon [4] [M⁻¹ s⁻¹] | Kd [5] [nM] | koff [5] [s⁻¹] | kon [5] [M⁻¹ s⁻¹] | Binder |
| --- | --- | --- | --- | --- | --- | --- | --- | --- | --- | --- | --- | --- | --- | --- | --- |
| 4.16 | 0.000368 | 88600 | 2.93 | 0.000163 | 58400 | 2.66 | 0.000189 | 71000 | – | – | – | – | – | – | A26 Fab-dsFv (645gH5gL4) (bispecific antibody, Anti-OX40 A26 Fab fused to the disulphide-stabilised anti-albumin Fv 645gH5gL4; In the cell assay (2.4) it was labelled with Alexa Fluor 488; also called A26 Fab-Fv; Fab-Fv) heavy: EVQLVESGGGLVQPGGSLRLSCAASGFTFTNYGIHWIRQAPGKGLEWVASISPSGGLTYYRDSVKGRFTISRDDAKNSPYLQMNSLRAEDTAVYYCATGGEGIFDYWGQGTLVTVSSASTKGPSVFPLAPSSKSTSGGTAALGCLVKDYFPEPVTVSWNSGALTSGVHTFPAVLQSSGLYSLSSVVTVPSSSLGTQTYICNVNHKPSNTKVDKKVEPKSCSGGGGSGGGGTGGGGSEVQLLESGGGLVQPGGSLRLSCAVSGIDLSNYAINWVRQAPGKCLEWIGIIWASGTTFYATWAKGRFTISRDNSKNTVYLQMNSLRAEDTAVYYCARTVPGYSTAPYFDLWGQGTLVTVSS light: DIQMTQSPSSLSASVGDRVTITCRATQSIYNALAWYQQKPGKAPKLLIYNANTLHTGVPSRFSASGSGTDSTLTISSLQPEDFATYYCQQYYDYPLTFGGGTKVEIKRTVAAPSVFIFPPSDEQLKSGTASVVCLLNNFYPREAKVQWKVDNALQSGNSQESVTEQDSKDSTYSLSSTLTLSKADYEKHKVYACEVTHQGLSSPVTKSFNRGECGGGGSGGGGSGGGGSDIQMTQSPSSVSASVGDRVTITCQSSPSVWSNFLSWYQQKPGKAPKLLIYEASKLTSGVPSRFSGSGSGTDFTLTISSLQPEDFATYYCGGGYSSISDTTFGCGTKVEIKRT |
| – | – | – | – | – | – | – | – | – | 1.28 | 0.000211 | 165000 | 1.31 | 0.00024 | 183000 | FabA-dsscFv (CL-dsscFv) (bispecific antibody) chain 1: DIQMTQSPSSLSASVGDRVTITCRATQSIYNALAWYQQKPGKAPKLLIYNANTLHTGVPSRFSASGSGTDSTLTISSLQPEDFATYYCQQYYDYPLTFGGGTKVEIKRTVAAPSVFIFPPSDEQLKSGTASVVCLLNNFYPREAKVQWKVDNALQSGNSQESVTEQDSKDSTYSLSSTLTLSKADYEKHKVYACEVTHQGLSSPVTKSFNRGECSGGGGSGGGGSGGGGSEVQLLESGGGLVQPGGSLRLSCAVSGIDLSNYAINWVRQAPGKCLEWIGIIWASGTTFYATWAKGRFTISRDNSKNTVYLQMNSLRAEDTAVYYCARTVPGYSTAPYFDLWGQGTLVTVSSGGGGSGGGGSGGGGSGGGGSDIQMTQSPSSVSASVGDRVTITCQSSPSVWSNFLSWYQQKPGKAPKLLIYEASKLTSGVPSRFSGSGSGTDFTLTISSLQPEDFATYYCGGGYSSISDTTFGCGTKVEIKRT chain 2: EVQLVESGGGLVQPGGSLRLSCAASGFTFTNYGIHWIRQAPGKGLEWVASISPSGGLTYYRDSVKGRFTISRDDAKNSPYLQMNSLRAEDTAVYYCATGGEGIFDYWGQGTLVTVSSASTKGPSVFPLAPSSKSTSGGTAALGCLVKDYFPEPVTVSWNSGALTSGVHTFPAVLQSSGLYSLSSVVTVPSSSLGTQTYICNVNHKPSNTKVDKKVEPKSC |
| – | – | – | – | – | – | – | – | – | 1.25 | 0.000199 | 160000 | 1.29 | 0.000222 | 172000 | FabA-dsscFv (CH1-dsscFv) (bispecific antibody) chain 1: EVQLVESGGGLVQPGGSLRLSCAASGFTFTNYGIHWIRQAPGKGLEWVASISPSGGLTYYRDSVKGRFTISRDDAKNSPYLQMNSLRAEDTAVYYCATGGEGIFDYWGQGTLVTVSSASTKGPSVFPLAPSSKSTSGGTAALGCLVKDYFPEPVTVSWNSGALTSGVHTFPAVLQSSGLYSLSSVVTVPSSSLGTQTYICNVNHKPSNTKVDKKVEPKSCSGGGGSGGGGTGGGGSEVQLLESGGGLVQPGGSLRLSCAVSGIDLSNYAINWVRQAPGKCLEWIGIIWASGTTFYATWAKGRFTISRDNSKNTVYLQMNSLRAEDTAVYYCARTVPGYSTAPYFDLWGQGTLVTVSSGGGGSGGGGSGGGGSGGGGSDIQMTQSPSSVSASVGDRVTITCQSSPSVWSNFLSWYQQKPGKAPKLLIYEASKLTSGVPSRFSGSGSGTDFTLTISSLQPEDFATYYCGGGYSSISDTTFGCGTKVEIKRT chain 2: DIQMTQSPSSLSASVGDRVTITCRATQSIYNALAWYQQKPGKAPKLLIYNANTLHTGVPSRFSASGSGTDSTLTISSLQPEDFATYYCQQYYDYPLTFGGGTKVEIKRTVAAPSVFIFPPSDEQLKSGTASVVCLLNNFYPREAKVQWKVDNALQSGNSQESVTEQDSKDSTYSLSSTLTLSKADYEKHKVYACEVTHQGLSSPVTKSFNRGEC |
